Our source for the Kd values is paper PMC10786891, “Massively parallel profiling of RNA-targeting CRISPR-Cas13d”.

T1: EsCas13d, nuclease-dead (Eubacterium siraeum, UniProt B0MS50, R295A;H300A;R849A;H854A)
T1 sequence: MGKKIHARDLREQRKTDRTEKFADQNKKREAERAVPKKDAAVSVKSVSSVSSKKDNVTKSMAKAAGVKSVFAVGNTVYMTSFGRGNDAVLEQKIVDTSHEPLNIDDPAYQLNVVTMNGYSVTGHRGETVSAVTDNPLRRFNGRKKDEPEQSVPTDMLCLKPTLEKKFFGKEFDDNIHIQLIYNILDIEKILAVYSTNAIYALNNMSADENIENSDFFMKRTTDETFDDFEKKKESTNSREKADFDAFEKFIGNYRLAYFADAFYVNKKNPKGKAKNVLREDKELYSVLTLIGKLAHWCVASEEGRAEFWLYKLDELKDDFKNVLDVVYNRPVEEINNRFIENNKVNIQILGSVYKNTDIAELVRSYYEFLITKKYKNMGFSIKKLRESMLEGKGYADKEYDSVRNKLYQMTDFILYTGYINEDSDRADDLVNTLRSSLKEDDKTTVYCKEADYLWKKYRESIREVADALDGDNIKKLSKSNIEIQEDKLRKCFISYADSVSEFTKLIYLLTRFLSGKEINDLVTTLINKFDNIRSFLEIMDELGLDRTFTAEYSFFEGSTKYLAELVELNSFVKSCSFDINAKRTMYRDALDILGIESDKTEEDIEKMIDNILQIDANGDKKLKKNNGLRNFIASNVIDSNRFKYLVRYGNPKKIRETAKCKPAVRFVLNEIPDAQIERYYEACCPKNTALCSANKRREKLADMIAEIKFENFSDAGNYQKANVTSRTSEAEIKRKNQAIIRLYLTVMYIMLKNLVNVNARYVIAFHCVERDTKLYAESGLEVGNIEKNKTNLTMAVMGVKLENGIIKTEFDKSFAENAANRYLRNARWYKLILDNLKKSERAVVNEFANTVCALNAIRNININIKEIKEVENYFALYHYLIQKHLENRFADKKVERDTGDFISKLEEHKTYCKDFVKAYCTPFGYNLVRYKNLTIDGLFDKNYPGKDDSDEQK

B1: target 1 U10G,G12U (mixed)
RNA 1: CACCCGUGCAAAAAUGCAGGGGUCUAAAACUGAGCGGAUAACCUCUCUAUGG
RNA 2: GGGAAUGGAUCCACAUCUACGAAUUCGUACCAUAGAGAGUUGAUCCGCUCACCGAGAUCGGAAGAGCACACGU
B2: target 1 C7U,C22U (mixed)
RNA 1: CACCCGUGCAAAAAUGCAGGGGUCUAAAACUGAGCGGAUAACCUCUCUAUGG
RNA 2: GGGAAUGGAUCCACAUCUACGAAUUCGUAUCAUAGAGAGGUUAUUCGCUCACCGAGAUCGGAAGAGCACACGU
B3: target 1 insG 3' of 8,insA 3' of 5 (mixed)
RNA 1: CACCCGUGCAAAAAUGCAGGGGUCUAAAACUGAGCGGAUAACCUCUCUAUGG
RNA 2: GGGAAUGGAUCCACAUCUACGAAUUCGUACCAUAGAGAGGUUAUGCCGACUCACCGAGAUCGGAAGAGCACACGU
B4: target 1 insU 3' of 18,insA 3' of 3 (mixed)
RNA 1: CACCCGUGCAAAAAUGCAGGGGUCUAAAACUGAGCGGAUAACCUCUCUAUGG
RNA 2: GGGAAUGGAUCCACAUCUACGAAUUCGUACCAUAUGAGAGGUUAUCCGCUACACCGAGAUCGGAAGAGCACACGU
B5: target 1 insA 3' of 7,insA 3' of 5 (mixed)
RNA 1: CACCCGUGCAAAAAUGCAGGGGUCUAAAACUGAGCGGAUAACCUCUCUAUGG
RNA 2: GGGAAUGGAUCCACAUCUACGAAUUCGUACCAUAGAGAGGUUAUCACGACUCACCGAGAUCGGAAGAGCACACGU
B6: target 1 insG 3' of 18,insU 3' of 18 (mixed)
RNA 1: CACCCGUGCAAAAAUGCAGGGGUCUAAAACUGAGCGGAUAACCUCUCUAUGG
RNA 2: GGGAAUGGAUCCACAUCUACGAAUUCGUACCAUAGUGAGAGGUUAUCCGCUCACCGAGAUCGGAAGAGCACACGU
B7: target 1 insU 3' of 13,insA 3' of 8 (mixed)
RNA 1: CACCCGUGCAAAAAUGCAGGGGUCUAAAACUGAGCGGAUAACCUCUCUAUGG
RNA 2: GGGAAUGGAUCCACAUCUACGAAUUCGUACCAUAGAGAGUGUUAUACCGCUCACCGAGAUCGGAAGAGCACACGU
B8: target 1 U8A,G15A (mixed)
RNA 1: CACCCGUGCAAAAAUGCAGGGGUCUAAAACUGAGCGGAUAACCUCUCUAUGG
RNA 2: GGGAAUGGAUCCACAUCUACGAAUUCGUACCAUAGAAAGGUUAACCGCUCACCGAGAUCGGAAGAGCACACGU
B9: target 1 U11G,A20U (mixed)
RNA 1: CACCCGUGCAAAAAUGCAGGGGUCUAAAACUGAGCGGAUAACCUCUCUAUGG
RNA 2: GGGAAUGGAUCCACAUCUACGAAUUCGUACCUUAGAGAGGGUAUCCGCUCACCGAGAUCGGAAGAGCACACGU
B10: target 1 G12U,C22A (mixed)
RNA 1: CACCCGUGCAAAAAUGCAGGGGUCUAAAACUGAGCGGAUAACCUCUCUAUGG
RNA 2: GGGAAUGGAUCCACAUCUACGAAUUCGUAACAUAGAGAGUUUAUCCGCUCACCGAGAUCGGAAGAGCACACGU
B11: target 1 insC 3' of 15,insG 3' of 7 (mixed)
RNA 1: CACCCGUGCAAAAAUGCAGGGGUCUAAAACUGAGCGGAUAACCUCUCUAUGG
RNA 2: GGGAAUGGAUCCACAUCUACGAAUUCGUACCAUAGAGCAGGUUAUCGCGCUCACCGAGAUCGGAAGAGCACACGU
B12: target 1 insA 3' of 15,insU 3' of 15 (mixed)
RNA 1: CACCCGUGCAAAAAUGCAGGGGUCUAAAACUGAGCGGAUAACCUCUCUAUGG
RNA 2: GGGAAUGGAUCCACAUCUACGAAUUCGUACCAUAGAGAUAGGUUAUCCGCUCACCGAGAUCGGAAGAGCACACGU
B13: target 1 U8A,A14G (mixed)
RNA 1: CACCCGUGCAAAAAUGCAGGGGUCUAAAACUGAGCGGAUAACCUCUCUAUGG
RNA 2: GGGAAUGGAUCCACAUCUACGAAUUCGUACCAUAGAGGGGUUAACCGCUCACCGAGAUCGGAAGAGCACACGU
B14: target 1 insA 3' of 22,insG 3' of 6 (mixed)
RNA 1: CACCCGUGCAAAAAUGCAGGGGUCUAAAACUGAGCGGAUAACCUCUCUAUGG
RNA 2: GGGAAUGGAUCCACAUCUACGAAUUCGUACACAUAGAGAGGUUAUCCGGCUCACCGAGAUCGGAAGAGCACACGU
B15: target 1 C7A,G13U (mixed)
RNA 1: CACCCGUGCAAAAAUGCAGGGGUCUAAAACUGAGCGGAUAACCUCUCUAUGG
RNA 2: GGGAAUGGAUCCACAUCUACGAAUUCGUACCAUAGAGAUGUUAUACGCUCACCGAGAUCGGAAGAGCACACGU
B16: target 1 C2G,G15A (mixed)
RNA 1: CACCCGUGCAAAAAUGCAGGGGUCUAAAACUGAGCGGAUAACCUCUCUAUGG
RNA 2: GGGAAUGGAUCCACAUCUACGAAUUCGUACCAUAGAAAGGUUAUCCGCUGACCGAGAUCGGAAGAGCACACGU
B17: target 1 insA 3' of 11,insG 3' of 11 (mixed)
RNA 1: CACCCGUGCAAAAAUGCAGGGGUCUAAAACUGAGCGGAUAACCUCUCUAUGG
RNA 2: GGGAAUGGAUCCACAUCUACGAAUUCGUACCAUAGAGAGGUAGUAUCCGCUCACCGAGAUCGGAAGAGCACACGU
B18: target 1 A9G,G12A (mixed)
RNA 1: CACCCGUGCAAAAAUGCAGGGGUCUAAAACUGAGCGGAUAACCUCUCUAUGG
RNA 2: GGGAAUGGAUCCACAUCUACGAAUUCGUACCAUAGAGAGAUUGUCCGCUCACCGAGAUCGGAAGAGCACACGU
B19: target 1 C6A,A9C (mixed)
RNA 1: CACCCGUGCAAAAAUGCAGGGGUCUAAAACUGAGCGGAUAACCUCUCUAUGG
RNA 2: GGGAAUGGAUCCACAUCUACGAAUUCGUACCAUAGAGAGGUUCUCAGCUCACCGAGAUCGGAAGAGCACACGU
B20: target 1 insA 3' of 11,insG 3' of 9 (mixed)
RNA 1: CACCCGUGCAAAAAUGCAGGGGUCUAAAACUGAGCGGAUAACCUCUCUAUGG
RNA 2: GGGAAUGGAUCCACAUCUACGAAUUCGUACCAUAGAGAGGUAUAGUCCGCUCACCGAGAUCGGAAGAGCACACGU
B21: target 1 G12A,G15A (mixed)
RNA 1: CACCCGUGCAAAAAUGCAGGGGUCUAAAACUGAGCGGAUAACCUCUCUAUGG
RNA 2: GGGAAUGGAUCCACAUCUACGAAUUCGUACCAUAGAAAGAUUAUCCGCUCACCGAGAUCGGAAGAGCACACGU
B22: target 1 insA 3' of 22,insC 3' of 20 (mixed)
RNA 1: CACCCGUGCAAAAAUGCAGGGGUCUAAAACUGAGCGGAUAACCUCUCUAUGG
RNA 2: GGGAAUGGAUCCACAUCUACGAAUUCGUACACACUAGAGAGGUUAUCCGCUCACCGAGAUCGGAAGAGCACACGU
B23: target 1 complement block 8-10 (mixed)
RNA 1: CACCCGUGCAAAAAUGCAGGGGUCUAAAACUGAGCGGAUAACCUCUCUAUGG
RNA 2: GGGAAUGGAUCCACAUCUACGAAUUCGUACCAUAGAGAGGUAUACCGCUCACCGAGAUCGGAAGAGCACACGU
B24: target 1 insG 3' of 8,insA 3' of 6 (mixed)
RNA 1: CACCCGUGCAAAAAUGCAGGGGUCUAAAACUGAGCGGAUAACCUCUCUAUGG
RNA 2: GGGAAUGGAUCCACAUCUACGAAUUCGUACCAUAGAGAGGUUAUGCCAGCUCACCGAGAUCGGAAGAGCACACGU
B25: target 1 C4A,U8G (mixed)
RNA 1: CACCCGUGCAAAAAUGCAGGGGUCUAAAACUGAGCGGAUAACCUCUCUAUGG
RNA 2: GGGAAUGGAUCCACAUCUACGAAUUCGUACCAUAGAGAGGUUAGCCGAUCACCGAGAUCGGAAGAGCACACGU
B26: target 1 insU 3' of 5,insG 3' of 1 (mixed)
RNA 1: CACCCGUGCAAAAAUGCAGGGGUCUAAAACUGAGCGGAUAACCUCUCUAUGG
RNA 2: GGGAAUGGAUCCACAUCUACGAAUUCGUACCAUAGAGAGGUUAUCCGUCUCAGCCGAGAUCGGAAGAGCACACGU
B27: target 1 insG 3' of 22,insG 3' of 22 (mixed)
RNA 1: CACCCGUGCAAAAAUGCAGGGGUCUAAAACUGAGCGGAUAACCUCUCUAUGG
RNA 2: GGGAAUGGAUCCACAUCUACGAAUUCGUACGGCAUAGAGAGGUUAUCCGCUCACCGAGAUCGGAAGAGCACACGU

The target of the data set is T1, EsCas13d, nuclease-dead. Description: crRNA (strand 1, pre-loaded); Mg2+; 40 mM Tris-HCl pH 7.5, 150 mM NaCl, 6 mM MgCl2, 1 mM DTT, 0.1% Tween-20, 0.2 mg/ml BSA; 25 C; 10 min per concentration, then washed. Particulars: tags: His6-TwinStrep-SUMO cleaved; N-terminal SNAP kept (SNAP-Surface 488); label: 3' end held by stalled T7 RNA polymerase.
B1 showed a dissociation constant Kd of 20 ± 4 nM.
With B2 the figure was 14.2 ± 1.3 nM.
Regarding B3, binding was put at a Kd of 11.5 ± 0.5 nM.
B4 yielded a Kd of 20.7 ± 0.7 nM.
With B5 the figure was 7.21 ± 0.35 nM; with B6, 68 ± 11 nM; with B7, 14.1 ± 0.7 nM.
In turn, B8 came in with a Kd of 87 ± 23 nM.
Consider B9, for which the affinity, expressed as Kd, was 77 ± 24 nM.
With B10 the figure was 19.7 ± 1 nM; with B11, 17.5 ± 1.2 nM; with B12, 15.7 ± 1.2 nM.
With B13 the figure was 31.1 ± 1.6 nM; with B14, 17.4 ± 1.6 nM; with B15, 59 ± 21 nM.
Molecule B16 had an equilibrium dissociation constant (Kd) of 14.2 ± 1.5 nM.
On to B17, for which binding was put at a Kd of 12.4 ± 0.4 nM.
In turn, B18 gave a dissociation constant Kd of 6.8 ± 0.5 nM.
The value for B19 was 23 ± 1.5 nM; that for B20 was 23.7 ± 2 nM; that for B21 was 20 ± 2.3 nM.
With B22 the figure was 5.9 ± 0.23 nM; with B23, 30.9 ± 2.1 nM.
In turn, B24 displayed a dissociation constant (Kd) of 13.1 ± 0.8 nM.
The value for B25 was 10.3 ± 0.7 nM; that for B26 was 7.4 ± 0.6 nM.
B27 yielded a dissociation constant (Kd) of 34.6 ± 2.2 nM.

As usually defined, the Kd is a measure of binding affinity in units of concentration. Read a low Kd as tighter binding.
